These results are taken from patent US12679878B2, “CRF2 receptor agonists and their use in therapy” (SANOFI, priority 2020, dated 2026).

This assay has as its target T1, CRF1R receptor (anti-target) (UniProt P34998 24-415, limits assumed).
T1 sequence (looked up): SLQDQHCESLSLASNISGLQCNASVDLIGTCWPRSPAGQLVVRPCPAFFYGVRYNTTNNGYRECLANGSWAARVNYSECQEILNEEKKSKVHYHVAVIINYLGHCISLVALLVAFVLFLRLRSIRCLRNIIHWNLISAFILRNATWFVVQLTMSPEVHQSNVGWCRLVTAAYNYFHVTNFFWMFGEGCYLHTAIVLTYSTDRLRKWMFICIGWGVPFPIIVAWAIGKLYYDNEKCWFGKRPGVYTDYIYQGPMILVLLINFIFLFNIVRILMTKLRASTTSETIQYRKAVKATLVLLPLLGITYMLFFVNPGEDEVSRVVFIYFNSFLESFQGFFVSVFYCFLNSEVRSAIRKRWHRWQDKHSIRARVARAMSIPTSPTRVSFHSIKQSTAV
As to the kind of experiment: cell-based or functional assay.

Starred links: 1 amine or outer side, 2 acyl side, 3 side chain; linkers in the order of their positions; H or OH if unused. Non-standard residues stand in square brackets, D forms with d. Groups on a side chain read outwards from the residue. No end group written: not given here. *: point of attachment. γGlu = O=C(O)[C@H](CCC(=O)[*:2])N[*:1]; Palmitoyl = CCCCCCCCCCCCCCCC(=O)*

B1: peptide of SEQ ID NO: 27 (peptide)
peptide: IVLSLD[dV]PTKLK([γGlu-Palmitoyl])KKLLKQERKRKEREQAEKNARILERV-NH2
modifications: N-terminus assumed
SMILES: CCCCCCCCCCCCCCCC(=O)N[C@@H](CCC(=O)NCCCC[C@H](NC(=O)[C@H](CC(C)C)NC(=O)[C@H](CCCCN)NC(=O)[C@@H](NC(=O)[C@@H]1CCCN1C(=O)[C@H](NC(=O)[C@H](CC(=O)O)NC(=O)[C@H](CC(C)C)NC(=O)[C@H](CO)NC(=O)[C@H](CC(C)C)NC(=O)[C@@H](NC(=O)[C@@H](N)[C@@H](C)CC)C(C)C)C(C)C)[C@@H](C)O)C(=O)N[C@@H](CCCCN)C(=O)N[C@@H](CCCCN)C(=O)N[C@@H](CC(C)C)C(=O)N[C@@H](CC(C)C)C(=O)N[C@@H](CCCCN)C(=O)N[C@@H](CCC(N)=O)C(=O)N[C@@H](CCC(=O)O)C(=O)N[C@@H](CCCNC(=N)N)C(=O)N[C@@H](CCCCN)C(=O)N[C@@H](CCCNC(=N)N)C(=O)N[C@@H](CCCCN)C(=O)N[C@@H](CCC(=O)O)C(=O)N[C@@H](CCCNC(=N)N)C(=O)N[C@@H](CCC(=O)O)C(=O)N[C@@H](CCC(N)=O)C(=O)N[C@@H](C)C(=O)N[C@@H](CCC(=O)O)C(=O)N[C@@H](CCCCN)C(=O)N[C@@H](CC(N)=O)C(=O)N[C@@H](C)C(=O)N[C@@H](CCCNC(=N)N)C(=O)N[C@H](C(=O)N[C@@H](CC(C)C)C(=O)N[C@@H](CCC(=O)O)C(=O)N[C@@H](CCCNC(=N)N)C(=O)N[C@H](C(N)=O)C(C)C)[C@@H](C)CC)C(=O)O
B1: the “EC50 [nM] 0% HSA (cAMP, HTRF)” value was more than 100 nM and the “Emax (%) (100% = Sauvagine at 100 nM)” value came out at 34.2%.

B2: peptide of SEQ ID NO: 28 (peptide)
peptide: IVLSLD[dV]PTKLK([γGlu-Palmitoyl])KKLLKQERKRKEREKAEKAARILERV-NH2
modifications: N-terminus assumed
SMILES: CCCCCCCCCCCCCCCC(=O)N[C@@H](CCC(=O)NCCCC[C@H](NC(=O)[C@H](CC(C)C)NC(=O)[C@H](CCCCN)NC(=O)[C@@H](NC(=O)[C@@H]1CCCN1C(=O)[C@H](NC(=O)[C@H](CC(=O)O)NC(=O)[C@H](CC(C)C)NC(=O)[C@H](CO)NC(=O)[C@H](CC(C)C)NC(=O)[C@@H](NC(=O)[C@@H](N)[C@@H](C)CC)C(C)C)C(C)C)[C@@H](C)O)C(=O)N[C@@H](CCCCN)C(=O)N[C@@H](CCCCN)C(=O)N[C@@H](CC(C)C)C(=O)N[C@@H](CC(C)C)C(=O)N[C@@H](CCCCN)C(=O)N[C@@H](CCC(N)=O)C(=O)N[C@@H](CCC(=O)O)C(=O)N[C@@H](CCCNC(=N)N)C(=O)N[C@@H](CCCCN)C(=O)N[C@@H](CCCNC(=N)N)C(=O)N[C@@H](CCCCN)C(=O)N[C@@H](CCC(=O)O)C(=O)N[C@@H](CCCNC(=N)N)C(=O)N[C@@H](CCC(=O)O)C(=O)N[C@@H](CCCCN)C(=O)N[C@@H](C)C(=O)N[C@@H](CCC(=O)O)C(=O)N[C@@H](CCCCN)C(=O)N[C@@H](C)C(=O)N[C@@H](C)C(=O)N[C@@H](CCCNC(=N)N)C(=O)N[C@H](C(=O)N[C@@H](CC(C)C)C(=O)N[C@@H](CCC(=O)O)C(=O)N[C@@H](CCCNC(=N)N)C(=O)N[C@H](C(N)=O)C(C)C)[C@@H](C)CC)C(=O)O
For the molecule B2, the “EC50 [nM] 0% HSA (cAMP, HTRF)” value is more than 100 nM and the “Emax (%) (100% = Sauvagine at 100 nM)” value turned out to be 8.4%.
